The source of these data is patent US20140087995A1 (published 2014).

T1: human calcitonin receptor (human, UniProt P30988 25-474)
T1 construct: whole, on cells; Assayed as cell membranes of BHK tk'ts 13 cells stably transfected with the human calcitonin receptor (Assay VII); also called hCTR; hCT
T1 sequence (looked up): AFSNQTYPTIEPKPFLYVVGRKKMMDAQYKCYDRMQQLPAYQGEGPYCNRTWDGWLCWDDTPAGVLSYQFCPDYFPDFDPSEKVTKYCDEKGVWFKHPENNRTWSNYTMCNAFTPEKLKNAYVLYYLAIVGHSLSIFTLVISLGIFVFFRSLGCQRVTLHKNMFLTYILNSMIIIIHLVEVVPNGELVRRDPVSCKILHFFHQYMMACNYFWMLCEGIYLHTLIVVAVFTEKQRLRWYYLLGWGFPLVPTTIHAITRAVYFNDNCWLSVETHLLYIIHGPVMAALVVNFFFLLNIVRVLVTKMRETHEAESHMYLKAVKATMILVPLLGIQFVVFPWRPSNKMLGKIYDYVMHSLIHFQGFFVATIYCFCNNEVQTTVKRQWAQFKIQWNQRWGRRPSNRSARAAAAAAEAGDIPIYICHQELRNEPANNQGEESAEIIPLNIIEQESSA

B1: N^ε1-[(4S)-4-carboxy-4-(19-carboxynonadecanoylamino)butanoyl]-[Arg17,Pro21,Pro27,His35]-h-amylin (peptide)
peptide: K([γGlu-C20 diacid])CNTATCATQRLANFLRHSSPNFGAIPSSTNVGSHTY-NH2
modifications: disulfide 2-7; N-terminus assumed
SMILES: CC[C@H](C)[C@H](NC(=O)[C@H](C)NC(=O)CNC(=O)[C@H](Cc1ccccc1)NC(=O)[C@H](CC(N)=O)NC(=O)[C@@H]1CCCN1C(=O)[C@H](CO)NC(=O)[C@H](CO)NC(=O)[C@H](Cc1c[nH]cn1)NC(=O)[C@H](CCCNC(=N)N)NC(=O)[C@H](CC(C)C)NC(=O)[C@H](Cc1ccccc1)NC(=O)[C@H](CC(N)=O)NC(=O)[C@H](C)NC(=O)[C@H](CC(C)C)NC(=O)[C@H](CCCNC(=N)N)NC(=O)[C@H](CCC(N)=O)NC(=O)[C@@H](NC(=O)[C@H](C)NC(=O)[C@@H]1CSSC[C@H](NC(=O)[C@@H](N)CCCCNC(=O)CC[C@H](NC(=O)CCCCCCCCCCCCCCCCCCC(=O)O)C(=O)O)C(=O)N[C@@H](CC(N)=O)C(=O)N[C@@H]([C@@H](C)O)C(=O)N[C@@H](C)C(=O)N[C@@H]([C@@H](C)O)C(=O)N1)[C@@H](C)O)C(=O)N1CCC[C@H]1C(=O)N[C@@H](CO)C(=O)N[C@@H](CO)C(=O)N[C@H](C(=O)N[C@@H](CC(N)=O)C(=O)N[C@H](C(=O)NCC(=O)N[C@@H](CO)C(=O)N[C@@H](Cc1c[nH]cn1)C(=O)N[C@H](C(=O)N[C@@H](Cc1ccc(O)cc1)C(N)=O)[C@@H](C)O)C(C)C)[C@@H](C)O
notes: also called compound 60
B2: N^ε1-[(4S)-4-carboxy-4-(19-carboxynonadecanoylamino)butanoyl]-[His14,Arg17,Pro21,Pro27,His35]-h-amylin (peptide)
peptide: K([γGlu-C20 diacid])CNTATCATQRLAHFLRHSSPNFGAIPSSTNVGSHTY-NH2
modifications: disulfide 2-7; N-terminus assumed
SMILES: CC[C@H](C)[C@H](NC(=O)[C@H](C)NC(=O)CNC(=O)[C@H](Cc1ccccc1)NC(=O)[C@H](CC(N)=O)NC(=O)[C@@H]1CCCN1C(=O)[C@H](CO)NC(=O)[C@H](CO)NC(=O)[C@H](Cc1c[nH]cn1)NC(=O)[C@H](CCCNC(=N)N)NC(=O)[C@H](CC(C)C)NC(=O)[C@H](Cc1ccccc1)NC(=O)[C@H](Cc1c[nH]cn1)NC(=O)[C@H](C)NC(=O)[C@H](CC(C)C)NC(=O)[C@H](CCCNC(=N)N)NC(=O)[C@H](CCC(N)=O)NC(=O)[C@@H](NC(=O)[C@H](C)NC(=O)[C@@H]1CSSC[C@H](NC(=O)[C@@H](N)CCCCNC(=O)CC[C@H](NC(=O)CCCCCCCCCCCCCCCCCCC(=O)O)C(=O)O)C(=O)N[C@@H](CC(N)=O)C(=O)N[C@@H]([C@@H](C)O)C(=O)N[C@@H](C)C(=O)N[C@@H]([C@@H](C)O)C(=O)N1)[C@@H](C)O)C(=O)N1CCC[C@H]1C(=O)N[C@@H](CO)C(=O)N[C@@H](CO)C(=O)N[C@H](C(=O)N[C@@H](CC(N)=O)C(=O)N[C@H](C(=O)NCC(=O)N[C@@H](CO)C(=O)N[C@@H](Cc1c[nH]cn1)C(=O)N[C@H](C(=O)N[C@@H](Cc1ccc(O)cc1)C(N)=O)[C@@H](C)O)C(C)C)[C@@H](C)O
notes: also called compound 66
B3: N^ε1-[(4S)-4-carboxy-4-(19-carboxynonadecanoylamino)butanoyl]-[Glu14,Arg17,Pro21,Pro27,Arg35]-h-amylin (peptide)
peptide: K([γGlu-C20 diacid])CNTATCATQRLAEFLRHSSPNFGAIPSSTNVGSRTY-NH2
modifications: disulfide 2-7; N-terminus assumed
SMILES: CC[C@H](C)[C@H](NC(=O)[C@H](C)NC(=O)CNC(=O)[C@H](Cc1ccccc1)NC(=O)[C@H](CC(N)=O)NC(=O)[C@@H]1CCCN1C(=O)[C@H](CO)NC(=O)[C@H](CO)NC(=O)[C@H](Cc1c[nH]cn1)NC(=O)[C@H](CCCNC(=N)N)NC(=O)[C@H](CC(C)C)NC(=O)[C@H](Cc1ccccc1)NC(=O)[C@H](CCC(=O)O)NC(=O)[C@H](C)NC(=O)[C@H](CC(C)C)NC(=O)[C@H](CCCNC(=N)N)NC(=O)[C@H](CCC(N)=O)NC(=O)[C@@H](NC(=O)[C@H](C)NC(=O)[C@@H]1CSSC[C@H](NC(=O)[C@@H](N)CCCCNC(=O)CC[C@H](NC(=O)CCCCCCCCCCCCCCCCCCC(=O)O)C(=O)O)C(=O)N[C@@H](CC(N)=O)C(=O)N[C@@H]([C@@H](C)O)C(=O)N[C@@H](C)C(=O)N[C@@H]([C@@H](C)O)C(=O)N1)[C@@H](C)O)C(=O)N1CCC[C@H]1C(=O)N[C@@H](CO)C(=O)N[C@@H](CO)C(=O)N[C@H](C(=O)N[C@@H](CC(N)=O)C(=O)N[C@H](C(=O)NCC(=O)N[C@@H](CO)C(=O)N[C@@H](CCCNC(=N)N)C(=O)N[C@H](C(=O)N[C@@H](Cc1ccc(O)cc1)C(N)=O)[C@@H](C)O)C(C)C)[C@@H](C)O
notes: also called compound 51
B4: N^ε1-[(4S)-4-carboxy-4-(19-carboxynonadecanoylamino)butanoyl]-[His14,Arg17,Pro21,Pro27,Arg34]-h-amylin (peptide)
peptide: K([γGlu-C20 diacid])CNTATCATQRLAHFLRHSSPNFGAIPSSTNVGRNTY-NH2
modifications: disulfide 2-7; N-terminus assumed
SMILES: CC[C@H](C)[C@H](NC(=O)[C@H](C)NC(=O)CNC(=O)[C@H](Cc1ccccc1)NC(=O)[C@H](CC(N)=O)NC(=O)[C@@H]1CCCN1C(=O)[C@H](CO)NC(=O)[C@H](CO)NC(=O)[C@H](Cc1c[nH]cn1)NC(=O)[C@H](CCCNC(=N)N)NC(=O)[C@H](CC(C)C)NC(=O)[C@H](Cc1ccccc1)NC(=O)[C@H](Cc1c[nH]cn1)NC(=O)[C@H](C)NC(=O)[C@H](CC(C)C)NC(=O)[C@H](CCCNC(=N)N)NC(=O)[C@H](CCC(N)=O)NC(=O)[C@@H](NC(=O)[C@H](C)NC(=O)[C@@H]1CSSC[C@H](NC(=O)[C@@H](N)CCCCNC(=O)CC[C@H](NC(=O)CCCCCCCCCCCCCCCCCCC(=O)O)C(=O)O)C(=O)N[C@@H](CC(N)=O)C(=O)N[C@@H]([C@@H](C)O)C(=O)N[C@@H](C)C(=O)N[C@@H]([C@@H](C)O)C(=O)N1)[C@@H](C)O)C(=O)N1CCC[C@H]1C(=O)N[C@@H](CO)C(=O)N[C@@H](CO)C(=O)N[C@H](C(=O)N[C@@H](CC(N)=O)C(=O)N[C@H](C(=O)NCC(=O)N[C@@H](CCCNC(=N)N)C(=O)N[C@@H](CC(N)=O)C(=O)N[C@H](C(=O)N[C@@H](Cc1ccc(O)cc1)C(N)=O)[C@@H](C)O)C(C)C)[C@@H](C)O
notes: also called compound 85
B5: N^ε1-[(4S)-4-carboxy-4-(19-carboxynonadecanoylamino)butanoyl]-[His14,Arg17,Pro21,Pro27,His34]-h-amylin (peptide)
peptide: K([γGlu-C20 diacid])CNTATCATQRLAHFLRHSSPNFGAIPSSTNVGHNTY-NH2
modifications: disulfide 2-7; N-terminus assumed
SMILES: CC[C@H](C)[C@H](NC(=O)[C@H](C)NC(=O)CNC(=O)[C@H](Cc1ccccc1)NC(=O)[C@H](CC(N)=O)NC(=O)[C@@H]1CCCN1C(=O)[C@H](CO)NC(=O)[C@H](CO)NC(=O)[C@H](Cc1c[nH]cn1)NC(=O)[C@H](CCCNC(=N)N)NC(=O)[C@H](CC(C)C)NC(=O)[C@H](Cc1ccccc1)NC(=O)[C@H](Cc1c[nH]cn1)NC(=O)[C@H](C)NC(=O)[C@H](CC(C)C)NC(=O)[C@H](CCCNC(=N)N)NC(=O)[C@H](CCC(N)=O)NC(=O)[C@@H](NC(=O)[C@H](C)NC(=O)[C@@H]1CSSC[C@H](NC(=O)[C@@H](N)CCCCNC(=O)CC[C@H](NC(=O)CCCCCCCCCCCCCCCCCCC(=O)O)C(=O)O)C(=O)N[C@@H](CC(N)=O)C(=O)N[C@@H]([C@@H](C)O)C(=O)N[C@@H](C)C(=O)N[C@@H]([C@@H](C)O)C(=O)N1)[C@@H](C)O)C(=O)N1CCC[C@H]1C(=O)N[C@@H](CO)C(=O)N[C@@H](CO)C(=O)N[C@H](C(=O)N[C@@H](CC(N)=O)C(=O)N[C@H](C(=O)NCC(=O)N[C@@H](Cc1c[nH]cn1)C(=O)N[C@@H](CC(N)=O)C(=O)N[C@H](C(=O)N[C@@H](Cc1ccc(O)cc1)C(N)=O)[C@@H](C)O)C(C)C)[C@@H](C)O
notes: also called compound 81

Numbered stars: 1 amine (or outer) side, 2 acyl side, 3 side chain; on linkers, the order of the positions; unused ones are H or OH. Bridge positions count the residues as written; N and C are the ends. Side chains are listed from the residue outwards. Ends that are not written are not given here. * marks the point of attachment. C20 diacid = O=C(O)CCCCCCCCCCCCCCCCCCC(=O)*; γGlu = O=C(O)[C@H](CCC(=O)[*:2])N[*:1]

One assay concerns the target T1, human calcitonin receptor. Briefly: IC50 at hCTR divided by IC50 at hAmylin-R (SPA competition assays V and VII). A digest of the protocol: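 Scintillation proximity competition binding on cell membranes at 35 ng/μL with SPA beads, in 50 mM Hepes pH 7.4, 1 mM CaCl2, 5 mM MgCl₂, 0.1% OA, 0.02% Tween20. Incubated 120 min at 25° C with shaking. IC₅₀ from one-site competition fit.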
Consider B1, for which the “Ratio hCT/hAmylin binding” value came to 45.2.

Regarding B2, the “Ratio hCT/hAmylin binding” value was 45.5.

For the molecule B3, the “Ratio hCT/hAmylin binding” value turned out to be 37.5.

Consider B4, for which the “Ratio hCT/hAmylin binding” value turned out to be 91.8.

Take B5: the “Ratio hCT/hAmylin binding” value came out at 87.2.

The target of another assay is T1, human calcitonin receptor. Description: SPA competition vs 125I-calcitonin, membranes of BHK cells with human calcitonin receptor (Assay VII). A digest of the protocol: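 BHK hCTR membranes 35 ng/μL + SPA beads 0.05 mg/well; buffer 50 mM Hepes pH 7.4, 1 mM CaCl2, 5 mM MgCl₂, 0.1% OA, 0.02% Tween20. 120 min, 25° C., shaking. Scintillation count; IC50 by one-site binding competition.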
Take B1: the IC50 turned out to be 31.4 nM.

For the molecule B2, the IC50 worked out at 18 nM.

Regarding B3, the IC50 amounted to 31.1 nM.

Consider B4, for which the IC50 stood at 80.4 nM.

Take B5: the IC50 is 23.6 nM.

By IC50 is commonly meant the concentration that inhibits the measured activity by half.
